Assay: soluble on expression in E. coli; label from the status in PepcDB or PDB records

Row | Sequence | soluble on expression in E. coli
1 | AAEGERAEPLRPSQSGARPCRAVGNMHFSIPETESRSGDSGGSAYVAYNIHVNGVLHCRVRYSQLLGLHEQLRKEYGANVLPAFPPKKLFSLTPAEVEQRREQLEKYMQAVRQDPLLGSSETFNSFLRRAQQETQQVPTEEVSLEVLLSNGQKVLVNVLTSDQTEDVLEAVAAKLDLPDDLIGYFSLFLVREKEDGAFSFVRKLQEFELPYVSVTSLRSQEYKIVLRKSYWDSAYDDDVMENRVGLNLLYAQTVSDIERGWILVTKEQHRQLKSLQEKVSKKEFLRLAQTLRHYGYLRFDACVADFPEKDCPVVVSAGNSELSLQLRLPGQQLREGSFRVTRMRCWRVTSSVPLPSGSTSSPGRGRGEVRLELAFEYLMSKDRLQWVTITSPQAIMMSICLQSMVDELMVKKSGGSIRKMLRRRVGGTLRRSDSQQAVKSPPLLESPDATRESMVKLSSKLSAVSLRGIGSPSTDASASDVHGNFAFEGIGDEDL | soluble
2 | ADPDVLTEVPAALKRLAKYVIRGFYGIEHALALDILIRNSCVKEEDMLELLKFDRKQLRSVLNNLKGDKFIKCRMRVETAADGKTTRHNYYFINYRTLVNVVKYKLDHMRRRIETDERDSTNRASFKCPVCSSTFTDLEANQLFDPMTGTFRCTFCHTEVEEDESAMPKKDARTLLARFNEQIEPIYALLRETEDVNLAYEILEPEPTEIPALKQSKDHAATTAGAASLAGGHHREAWATKGPSYEDLYTQNVVINMDDQEDLHRASLEGKSAKERPIWLRESTVQGAYGSEDMKEGGIDMDAFQEREEGHAGPDDNEEVMRALLIHEKKTSSAMAGSVGAAAPVTAANGDDSESETSESDDDSPPRPAAVAVHKREEDEEEDDEFEEVADDPIVMVAGRPFSYSEVSQRPELVAQMTPEEKEAYIAMGQRMFEDLFE | not soluble
3 | AEFFPEIPKVQFEGKESTNPLAFKFYDPEEIIDGKPLKDHLKFSVAFWHTFVNEGRDPFGDPTADRPWNRYTDPMDKAFARVDALFEFCEKLNIEYFCFHDRDIAPEGKTLRETNKILDKVVERIKERMKDSNVKLLWGTANLFSHPRYMHGAATTCSADVFAYAAAQVKKALEITKELGGEGYVFWGGREGYETLLNTDLGFELENLARFLRMAVDYAKRIGFTGQFLIEPKPKEPTKHQYDFDVATAYAFLKSHGLDEYFKFNIEANHATLAGHTFQHELRMARILGKLGSIDANQGDLLLGWDTDQFPTNVYDTTLAMYEVIKAGGFTKGGLNFDAKVRRASYKVEDLFIGHIAGMDTFALGFKVAYKLVKDGVLDKFIEEKYRSFREGIGRDIVEGKVDFEKLEEYIIDKETIELPSGKQEYLESLINSYIVKTILELR | soluble
4 | AFNNNPSSVGAYSSGTYRNLAQEMGKTNIQQKVNSTFDNMFGYNNTQQLYYPYTENGVYKAHYIKAINPDEGDDIRTEGQSWGMTAAVMLNKQEEFDNLWRFAKAYQKNPDNHPDAKKQGVYAWKLKLNQNGFVYKVDEGPAPAGEEYFAFALLNASARWGNSGEFNYYNDAITMLNTIKNKLMENQIIRFSPYIDNLTDPSYHIPAFYDYFANNVTNQADKNYWRQVATKSRTLLKNHFTKVSGSPHWNLPTFLSRLDGSPVIGYIFNGQANPGQWYEFDAWRVIMNVGLDAHLMGAQAWHKSAVNKALGFLSYAKTNNSKNCYEQVYSYGGAQNRGCAGEGQKAANAVALLASTNAGQANEFFNEFWSLSQPTGDYRYYNGSLYMLAMLHVSGNFKFYNNTFN | soluble
5 | AFVVTDNCIKCKYTDCVEVCPVDCFYEGPNFLVIHPDECIDDALCEPECPAQAIFSEDEVPEDMQEFIQLNAELAEVWPNITEKKDPLPDAEDWDGVKGKLQHLER | soluble
6 | AGTYNYGEALQKSIMFYEFQRSGDLPADKRDNWRDDSGMKDGSDVGVDLTGGWYDAGDHVKFNLPMSYTSAMLAWSLYEDKDAYDKSGQTKYIMDGIKWANDYFIKCNPTPGVYYYQVGDGGKDHSWWGPAEVMQMERPSFKVDASKPGSAVCASTAASLASAAVVFKSSDPTYAEKCISHAKNLFDMADKAKSDAGYTAASGYYSSSSFYDDLSWAAVWLYLATNDSTYLDKAESYVPNWGKEQQTDIIAYKWGQCWDDVHYGAELLLAKLTNKQLYKDSIEMNLDFWTTGVNGTRVSYTPKGLAWLFQWGSLRHATTQAFLAGVYAEWEGCTPSKVSVYKDFLKSQIDYALGSTGRSFVVGYGVNPPQHPHHRTAHGSWTDQMTSPTYHRHTIYGALVGGPDNADGYTDEINNYVNNEIACDYNAGFTGALAKMYKHSGGDPIPNFKAIEKITNDEVIIKAGLNSTGPNYTEIKAVVYNQTGWPARVTDKISFKYFMDLSEIVAAGIDPLSLVTSSNYSEGKNTKVSGVLPWDVSNNVYYVNVDLTGENIYPGGQSACRREVQFRIAAPQGTTYWNPKNDFSYDGLPTTSTVNTVTNIPVYDNGVKVFGNEP | soluble
7 | AHHHHHHGSFFLKTKIIEGRGSLEYLQKEAIGFERALILASSSMKRLGFLKEAEDYLREGGVEVISIAGLPPEPTKDVVDEFLPKVREFSPEILIAIGGGSVIDMAKALKVFYDVPGISFEEVAIKSRFSKPRPVPKLKTPLIAIPSTSGAGSEVSAASVIKVGDVKYTIVTPEIAPEVAILDPRLPEGMPPEVARNSGMDVLVHAIEAYVSKASSPFTDAMAVKAAKAVLEHLEESIRGDKNAREKIHYAATMAGIAFLNARLGLVHAMSHKAAWIGPHGLVNAILLPYVMEYNMARRREKYDALARELGFDNAEELLEEIKALNERLGIGPISSYVSEEEFLAKLDEMVERAYEDPLVNFNPVEPRKEDIRRIYERAFYGD | soluble
8 | AHHHHHHGSKARIIYRASFDAAHAVKIEEWEELHGHTFSLEVVVEGEIKKGYVMDFLKLKKVVDGVVKELDHRNLNKIMDNPTTENIALWISERIRKNLPGDVKLKRLSLWEGNEFGVELEW | soluble
9 | AHHHHHHGSKGILPYVIFRSKKGTFALDAYLALRVEKVERIATLIRKAEVVKRAFDIPPNADLTLEELSEFLESSMEKIRKNAGESFDRRLKKIRRWNLARLFGIPTGHTRHIAEDEHLSREHRESLLALSILENVCRGGIEPIGYGVVDVEVKEGKVYINGKLDPVYTELIKIDMKAALALLEILSE | not soluble
10 | AHHHHHHGSKVEKYAIIFGKNPELGLYELKAFSKRFKLGVRILEIRFYGPNKSFAIIQAKEEIEKKFKWLGGALKLVRIVGEGLDTIENLEYSKLFTVSLYGKEDWKAWRKLGSQVKAVFKRKDSSKFFKPANVYSMPSELILKGFPEVKDVVFLFVDKDRVLVGETIRITNPFELKKLDVERPIVRPTLSIPPRLARIMINLSEVRKGNVLDPFCGTGTILVELLLQGLIAYGSDISQERINDARKNIEWIRKEFRIKQNASLRVCDVRRLKKCFRTRFDAIITEPYMGRPLKTKPTREEAIKIAKQLDRLYYQAFESFSDVLKRNAKVVFVFPAFNLAEGGVYRRNRPWLEELGFKVEYSILDIDEKHRIGRDIYVIRY | soluble
11 | AHHHHHHGSLVVKDLNVEYDNVKVLKGISFALNSGEKAIILGTNGAGKTTLLKSLLGLIPIKSGKIQICGKPYEKVVGEKKVSTNLESVYKLVYSIKVSELIDLYCDLKEIPSQQILNFIKEMKLEHILEKKFYNLSSGEKKCLTNLLAFFTDSKLILLDEPFEGLDPWRTNKTVEILNSLKSSIIMTTHRLDILSKFSTFKVYFLFNGHLYGPIRSASDLVNCYVTFSDIEEGESDIVLRIQGDKKNVILTRRPIGQKISDYASIDEIYRVMLE | not soluble
12 | AHHHHHHGSRPKVGVLLKMKREALEELEKYAEVEVIPYPSEEELKNKIHEFDGIIVSPVTKITKDVLEKAERLKVISCHSAGYDHIDVEEATRKGIYVTKVSGLLSEAVAEFAVGLLINLMRKIHYADKLIRRGEWESHVKIWTGFKGIESLYGKKVGILGMGAIGKAIARRLIPFGVELYYWSRHRKVDVESELHATYMDIDELLEKSDIVILALPLTKDTYHIINEERVKKLEGKYLVNIGRGALVDERAITEAIKQGKLKGYATDVFENEPVREHELFKYEWETVLTPHYAGLAVEAQEDVGFRAVENLISIFRGIVPEDLVNKEVLKIRPIESVKML | not soluble
13 | AHHHHHHGSSAKLERIVEEISVAFVGHEDVVRKVLSAALANGNVLFEDNPGLGKTLLAKAFAKVLGLEYRRVQFTPDLLPSDILGTKVWRPEKGTFEIVKGPIFTNVLLADEINRAPPKTQSALLEAMEERQVTIEGETFVLERPFFVIATQNPLEFEGTYPLPEAQLDRFLVRMSIGYPKNESEEVEILKARLRWGKDDPTTDLKPAITKSEFLKMQEDVERNVKIHEDILKYIVRIVRTIREDERVEAGPSPRGGLALMKLAKANAYVEGRDYVIPDDVKEFAIEALAHRIFLKPEYSLEKGIEIEIVREALESVPVPKDLKY | not soluble
14 | AHHHHHHGSSMELFEVHEGKAKVLVPKAKTIYDSPVFYNPRMAPNRDVVVLLLNVLKPKIVLDALSATGIRGIRFALETPAEEIWMNDINELAYELMKKNVLLNFKGTLKENAKRAIFEGEKTIVINNDDANRLMAEKHRYFHFIDLDPFGSPMEFLDTALRSVKRKGILGVTATDGAPLCGAHPKACLRKYLAVPLRGELCHEVGTRILVGVIARYAAKYDLGMEVLLAYYKDHYFRAFVKLKDGAKKGDETLENLGYVYFDEKTGRFEVEKSFLSTRPNAYGPLWLGPLKNEKVVGEMLELLVSGFEVANYREVLKLLHMLHEELDIPLFYDTHALGKRLKIEPKKLGEIIKELKSMGYEATRTHFSPTGIKTNAPYEVFVEVMRKN | soluble
15 | AHHHHHHGSTHIFPEINSISSLLLLYNGRVLANIHDRTIKKVIGFEAIFRDRVIRNDIKMLIELIRKGDEPLEIRGITIEDYAMNLIKGMMKFARPEE | not soluble
16 | AHHHHHHGSVKFCPKCGSIMIPDRRRGVFVCRKCGYEEPINPEDTKAYRRTEEVKHRPDEGVVVIEQEVSTLPTAKVTCPKCGHNEAWWWELQTRAGDEPSTIFYKCKKCGYVWRSYE | soluble
17 | AHQYGVKSYIGIPRSYSHDRTDFMQSEQAEILYYDGKYEETVEFIRDFSKDNGLYDASPGSANSSIDKMMYATIAFEIYEALLTVPSYVIVPVGNGTTLAGIYHGFRRMYDEGVIDHLPRMVGVSTSGGNPIVDSWRHGYSRVVDLNPEEIRETSINEPLVSYRSFDGQDALSAIRETHGRAMYVSDEEMVYYSNLIYSAEGLNPLPASASAVAAIGHLKVKQDETVVSVITGRQI | not soluble
18 | AIAAEPIELLCWGGDWDLPSVQTDSLTVLAYAKFAGAELTVKFVDWTWRTITASVPQIHYEGTTVTEPTQILNFLRKQRFNADFELTAKQGADTMAYIALLEEKLRPALLHTFWVDAENYANLTRPWFTSHSPFPLNFFVPGRQASLALSRILLTKAESPLLNITEVEGKIYSEAKECLNLLSHRLGNFNFFFGDTPTSLDAFVFGHIAPLIKAPLPSGQLQKHLNQLDNLCQFCNTILKNYFTDATAEKRMDCSPTVAHDFVDANLQKLTQLVNKESNLIEKMDDNLRSSPQHRPHRHEAKPSAPASDRNSTPA | soluble
19 | AIAAIAEKAKGKEWTSTEKSREEDQQASNQPNSIALPGTSAKRTKEKMSVKGSKVLCPKKKAEHTDNPRPQKKIPIPPLPSKLPPVNLIHRDILRAWCQQLKLSSKGQKLDAYKRLCAFAYPNQKDFPSTAKEAKIRKSLQKKLKVEKGETSLQSSETHPPEVALPPVGEPPALENSTALLEGVNTVVVTTSAPEALLASWARISARARTPEAVESPQEASGVRWCVVHGKSLPADTDGWVHLQFHAGQAWVPEKQEGRVSALFLLPASNFPPPHLEDNMLCPKCVHRNKVLIKSLQWE | soluble
20 | AIACGDCVEKEYPNRGTTCLENGSFLLNFAGCAVCSKRDFMLITNRSLKEEDGEEIVTYDRIYHAVSVVWQS | soluble

From the DeepSol protein solubility set
